Source: patent US11407819B2, “Compositions and use of a fibrinogen binding motif present in EFB and COA for therapeutics and vaccines against Staphylococcus aureus” (priority 2013, dated 2022)

Columns and labels:
[1] = tested on: C2C12-α1 and C2C12-α2 cells (human integrin α1 or α2 subunits); experiment: C2C12 cell adhesion to coated DC proteins; assay type: cell-based, mouse; details: 10 μg coated protein; 1 hour
Procedure: Integrin interactions with DC2-Fg—A11 cell culture supplies were purchased from Life Technologies and used as received unless otherwise noted. […] Mouse myoblast C2C12, C2C12-α1, and C2C12-α2 cells were cultured in Dulbecco's modified Eagle's medium (DMEM) with 10 vol % fetal bovine serum (FBS) and 1 vol % penicillin-streptomycin, 1 mg ml^−1 geneticin, or 10 μg ml^−1 puromycin, respectively. To assess C2C12 cell adhesion, 48 well tissue culture polystyrene (TCPS) plates were coated with 10 μg of DC1 (negative control—no integrin binding sites), DC2, DC2-Fg, or collagen type I (positive control) overnight at 4° C. Proteins were coated in triplicate for each cell type. Wells were blocked with 4 wt % bovine serum albumin (BSA) in PBS for 1 hour at room temperature and rinsed with sterile PBS. Cells were adapted to serum-free media (DMEM with 1 mM CaCl2, 1 mM MgCl2, and appropriate antibiotic) for 12 hours prior to trypsinization and seeding at 5,000 cells cm^−1. […] Lysates from samples and from known standards were transferred to a 96 well plate, and cell numbers were measured with the CYTOTOX 96® NON-RADIOACTIVE CYTOTOXICITY ASSAY. […] Then, 50 μl of stop solution was added to each well, and the absorbance was read at 490 nm. Cell numbers were quantified using standards of known cell numbers for each cell line.

Fibrinogen = biological target: T1, Fibrinogen (Homo sapiens, UniProt P02671+P02675+P02679); experiment: Solid phase binding assay, fibrinogen binding to coated DC2, DC2-Fg, Efb; details: read-out: apparent KD of fibrinogen binding
T1 sequence (P02671 20-629 limits assumed): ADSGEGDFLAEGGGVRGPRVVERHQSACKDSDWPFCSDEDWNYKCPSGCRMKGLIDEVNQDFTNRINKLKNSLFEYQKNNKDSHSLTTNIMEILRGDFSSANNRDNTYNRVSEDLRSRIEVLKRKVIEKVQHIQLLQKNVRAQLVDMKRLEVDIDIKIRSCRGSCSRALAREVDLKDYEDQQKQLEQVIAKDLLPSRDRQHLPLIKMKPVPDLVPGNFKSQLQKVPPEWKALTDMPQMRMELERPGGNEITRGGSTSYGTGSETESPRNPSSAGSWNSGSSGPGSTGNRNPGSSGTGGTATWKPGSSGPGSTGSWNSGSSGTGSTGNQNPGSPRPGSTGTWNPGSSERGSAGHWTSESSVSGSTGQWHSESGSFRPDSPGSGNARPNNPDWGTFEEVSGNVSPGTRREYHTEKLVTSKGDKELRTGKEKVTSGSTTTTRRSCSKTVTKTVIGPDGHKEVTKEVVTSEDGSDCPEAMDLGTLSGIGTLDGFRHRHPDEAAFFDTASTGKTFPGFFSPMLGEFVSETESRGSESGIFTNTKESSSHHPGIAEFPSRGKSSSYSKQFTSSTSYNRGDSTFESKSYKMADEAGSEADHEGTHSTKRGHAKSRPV
T1 sequence (P02675 31-491): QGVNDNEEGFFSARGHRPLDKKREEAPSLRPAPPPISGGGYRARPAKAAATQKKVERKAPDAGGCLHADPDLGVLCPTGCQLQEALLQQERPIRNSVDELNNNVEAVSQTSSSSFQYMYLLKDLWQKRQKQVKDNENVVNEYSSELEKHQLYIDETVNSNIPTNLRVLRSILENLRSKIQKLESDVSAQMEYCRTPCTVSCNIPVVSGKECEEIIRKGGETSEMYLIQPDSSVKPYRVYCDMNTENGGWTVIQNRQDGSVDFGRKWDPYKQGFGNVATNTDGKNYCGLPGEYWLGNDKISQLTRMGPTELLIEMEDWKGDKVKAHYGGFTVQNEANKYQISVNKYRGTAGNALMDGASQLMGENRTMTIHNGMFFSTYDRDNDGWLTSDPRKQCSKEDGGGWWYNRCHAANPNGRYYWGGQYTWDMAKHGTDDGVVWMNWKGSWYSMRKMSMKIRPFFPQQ
T1 sequence (P02679 27-453): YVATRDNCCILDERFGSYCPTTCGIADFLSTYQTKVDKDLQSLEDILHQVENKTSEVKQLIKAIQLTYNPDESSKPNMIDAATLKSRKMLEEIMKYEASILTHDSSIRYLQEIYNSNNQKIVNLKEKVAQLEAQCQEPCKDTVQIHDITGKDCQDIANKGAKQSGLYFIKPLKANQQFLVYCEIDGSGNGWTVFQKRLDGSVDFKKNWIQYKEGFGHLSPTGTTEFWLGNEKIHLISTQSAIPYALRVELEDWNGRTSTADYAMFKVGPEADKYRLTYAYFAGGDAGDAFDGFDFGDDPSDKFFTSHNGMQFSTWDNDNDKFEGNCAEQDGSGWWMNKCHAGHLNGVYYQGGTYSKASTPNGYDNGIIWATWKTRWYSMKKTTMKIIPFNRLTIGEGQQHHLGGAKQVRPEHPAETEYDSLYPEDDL
Procedure: Solid phase binding assay-: Microtiter wells were coated with 1 μg of DC2, DC2-Fg, or Efb overnight at 4° C. to assess fibrinogen adhesion to DC proteins. Coated wells were blocked with 4 wt % BSA in PBS for 1 hour at room temperature. Fibrinogen was added to each protein-coated well in a serial dilution from 100 to 0 μg/well (0.3 to 0 μM). After 1 hour of incubation at room temperature, a sheep anti-fibrinogen antibody was applied to the wells (1:1000 dilution) for 1 hour at room temperature. An HRP-labelled secondary antibody to sheep was applied to the wells for 1 hour at room temperature, and […]™ OPD was utilized to detect bound fibrinogen via an absorbance reading at 450 nm on a THERMOMAX™ plate reader. Studies were performed in triplicate, and plates were washed three times between each step with 200 μl of PBS with 0.1 vol % TWEEN® 20.

rCoa-C binding to Fg = biological target: T2, rCoa-C binding to Fg (Homo sapiens, UniProt P02671+P02675+P02679); experiment: Competition ELISA, peptide inhibition of rCoa-C (Coa 311-636) binding to Fg; details: increasing concentrations of peptides; 4 nM GST fusion protein
T2 construct: full-length human Fibrinogen (diluted in PBS, Enzyme research); purchased Enzyme research; host or cells: Coa probe made in E. coli BL21
T2 sequence (P02671 20-629 limits assumed): T1 sequence (P02671 20-629 limits assumed)
T2 sequence (P02675 31-491): T1 sequence (P02675 31-491)
T2 sequence (P02679 27-453): T1 sequence (P02679 27-453)
Procedure: The residues in Coa-RI important for fibrinogen binding. FIG. 12A is a panel of coa-RI variant peptides were synthesized where each residue in the sequence is individually replaced with Ala (or Ser when the native a.a. is Ala). […] Wells were coated with 0.25 μg/well Fg. Labels -1, -2, -3, -4, -5, -6, -7, -8, -9, -10, -11, -12, -13, -14, -15, -16, -17, -18, -19, -20, -21, -22, -23, -24, -25, -26, -27 refer to Coa-RI-1, Coa-RI-2, Coa-RI-3, Coa-RI-4, Coa-RI-5, Coa-RI-6, Coa-RI-7, Coa-RI-8, Coa-RI-9, Coa-RI-10, Coa-RI-11, Coa-RI-12, Coa-RI-13, Coa-RI-14, Coa-RI-15, Coa-RI-16, Coa-RI-17, Coa-RI-18, Coa-RI-19, Coa-RI-20, Coa-RI-21, Coa-RI-22, Coa-RI-23, Coa-RI-24, Coa-RI-25, Coa-RI-26, Coa-RI-27, respectively. FIG. 12C is a comparison of amino acid sequence of Efb-O with Coa-RI. FIG. 12D is a Fg-binding register of tandem repeats in Coa. Bold letters denote the residues that are important for Fg binding. Binding of a fixed concentration of rCoa-C (2 nM) to immobilized Fg was determined in the presence of a fixed concentration of these peptides (50 uM) (FIG. 12B). […]
FIG. 13A is a schematic presentation of Coa peptides. […] The Fg binding activities of these peptides were then investigated in a competition ELISA where the binding of rCoa-C to Fg coated microtiter wells were determined in the presence of increasing concentrations of peptide (FIG. 13B). […]

Substance	C2C12-α1 and C2C12-α2 adhesion [1]	Kd (Fibrinogen) [nM]	inhibition of rCoa-C binding to fibrinogen by overlapping Coa R peptides (rCoa-C binding to Fg)
DC2-Fg: DC2 with Fg binding motif Efb-O inserted after position 301 Gln (KYIKFKHDYNILEFNDGTFEYGARPQFNKPA; left off: things letters cannot carry; small tags and cut ends)	significantly increased C2C12-α1 and C2C12-α2 adhesion relative to DC2	~10	
Efb-O: Fg binding motif Efb 68-98 (SEQ ID NO:1); coated comparator in b135 is Efb		~1	
sCoa-RI2: 27-residue overlapping Coa repeat I peptide (AYNVTTHANGQVSYGARPTYKKPSETN)			some inhibitory activity
